For one protein, unfolding free energy results are on record in FireProtDB (doi:10.1021/bi012113g).

Where “and” joins values, the source holds several entries; their conditions need not be identical. Equal entries are not always repeated.

The conditions of the data set: Vibrio harveyi; pH 7; 25 °C; Urea; CD; NaH2PO4/K2HPO4 50 mM; transition: 4; whole UniProt chain shown.

B1: Alkanal monooxygenase alpha chain wild type, P07740 (protein)
chain: MKFGNFLLTYQPPELSQTEVMKRLVNLGKASEGCGFDTVWLLEHHFTEFGLLGNPYVAAAHLLGATETLNVGTAAIVLPTAHPVRQAEDVNLLDQMSKGRFRFGICRGLYDKDFRVFGTDMDNSRALMDCWYDLMKEGFNEGYIAADNEHIKFPKIQLNPSAYTQGGAPVYVVAESASTTEWAAERGLPMILSWIINTHEKKAQLDLYNEVATEHGYDVTKIDHCLSYITSVDHDSNRAKDICRNFLGHWYDSYVNATKIFDDSDQTKGYDFNKGQWRDFVLKGHKDTNRRIDYSYEINPVGTPEECIAIIQQDIDATGIDNICCGFEANGSEEEIIASMKLFQSDVMPYLKEKQ
As for B1, the unfolding free energy was 4.5 kcal/mol and 2.8 kcal/mol.
